Biological target: ANT4044-DOTA (human)
Assay: SPR; Biacore T200, single-cycle kinetics, 25 °C, HBS-EP+; antibody-DOTA captured on a Protein G chip (~50 RU); PSMA as analyte, three-point 2-fold dilution 12.5-50 nM, 40 uL/min; association 200 s, dissociation 1500 s; Langmuir 1:1 fit

Sequence of ANT4044-DOTA (human) (heavy, as listed by the source, chain 1 of 2): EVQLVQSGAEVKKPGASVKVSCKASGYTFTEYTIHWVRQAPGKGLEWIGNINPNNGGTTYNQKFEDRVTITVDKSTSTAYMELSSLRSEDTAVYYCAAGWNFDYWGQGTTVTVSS
Sequence of ANT4044-DOTA (human) (light, as listed by the source, chain 2 of 2): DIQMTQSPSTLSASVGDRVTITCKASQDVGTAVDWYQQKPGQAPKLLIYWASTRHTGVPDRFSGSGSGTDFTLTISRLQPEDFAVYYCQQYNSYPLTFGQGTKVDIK

With cynomolgus PSMA (natural protein) the Kd was 2.68 nM, the koff was 0.000187 s⁻¹ and the kon was 69700 M⁻¹ s⁻¹.

From paper PMC12670495
